This note sets out measurements from patent US20040259198.

The test system of the data set is recombinant human MAT II β subunit protein with N-terminal poly-His tag, expressed in E. coli from pQE-30 (Clone 5).

As to “recombinant human MAT II α2 subunit expressed in E. coli from the pQE-30 vector”, the “Km (L-Met)” value is on record as “the cloned protein lowered the Km (L-Met) of the recombinant human MAT II α2 subunit from 80 µM to 34 µM”; the “Km for L-Met in the presence of the MAT II β subunit” value is given as “another kinetic form with a Km for L-Met of 32-34 µM was also apparent, in each case”; the “Km of MAT for L-methionine” value was “This association changed the kinetic properties of the enzyme and lowered the Km of MAT for L-methionine”.
